Test results reported in paper PMC2965030.

Assays:
[1] = biological target: β2-glycoprotein I (human) (UniProt P02749); experiment: optical biosensor
[2] = biological target: Glu-plasminogen (Homo sapiens) (UniProt P00747); details: cited from earlier work
Sequence of Glu-plasminogen (Homo sapiens) (P00747 20-810): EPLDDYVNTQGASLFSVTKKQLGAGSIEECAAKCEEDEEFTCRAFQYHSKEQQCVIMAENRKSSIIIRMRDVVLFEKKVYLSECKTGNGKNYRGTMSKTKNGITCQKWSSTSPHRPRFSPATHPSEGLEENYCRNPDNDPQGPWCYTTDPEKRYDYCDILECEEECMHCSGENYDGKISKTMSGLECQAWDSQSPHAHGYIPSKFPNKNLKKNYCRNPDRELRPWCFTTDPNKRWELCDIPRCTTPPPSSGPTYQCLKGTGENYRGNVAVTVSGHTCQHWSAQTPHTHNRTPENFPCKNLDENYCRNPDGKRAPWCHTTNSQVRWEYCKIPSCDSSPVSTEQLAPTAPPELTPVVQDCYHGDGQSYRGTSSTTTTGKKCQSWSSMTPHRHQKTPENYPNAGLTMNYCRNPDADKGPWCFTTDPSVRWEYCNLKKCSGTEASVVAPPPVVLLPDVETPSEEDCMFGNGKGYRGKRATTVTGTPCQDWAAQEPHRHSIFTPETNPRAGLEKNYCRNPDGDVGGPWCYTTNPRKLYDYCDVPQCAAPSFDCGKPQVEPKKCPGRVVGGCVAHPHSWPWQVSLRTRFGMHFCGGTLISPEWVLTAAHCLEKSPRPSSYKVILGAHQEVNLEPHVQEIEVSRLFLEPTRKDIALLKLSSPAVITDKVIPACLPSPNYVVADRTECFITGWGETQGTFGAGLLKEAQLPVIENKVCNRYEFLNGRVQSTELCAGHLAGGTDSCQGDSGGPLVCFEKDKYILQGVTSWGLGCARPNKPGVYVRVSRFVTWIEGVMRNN

Sequence of β2-glycoprotein I (human) (P02749 20-345): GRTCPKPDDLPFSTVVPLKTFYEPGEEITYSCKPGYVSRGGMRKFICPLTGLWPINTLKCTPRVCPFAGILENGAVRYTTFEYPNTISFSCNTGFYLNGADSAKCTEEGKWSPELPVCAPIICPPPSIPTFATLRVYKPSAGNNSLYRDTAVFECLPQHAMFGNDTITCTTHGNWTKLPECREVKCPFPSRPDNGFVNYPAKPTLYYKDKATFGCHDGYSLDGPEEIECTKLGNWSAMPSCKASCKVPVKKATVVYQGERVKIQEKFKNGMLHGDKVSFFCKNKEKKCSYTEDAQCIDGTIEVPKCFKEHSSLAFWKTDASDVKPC
Sequence of β2-glycoprotein I (nicked) (P02749 20-345): as above

| koff [1] | kon [1] | Substance | Kd [2] |
| --- | --- | --- | --- |
| 0.00619 s⁻¹ | 113000 M⁻¹ s⁻¹ | tissue-type plasminogen activator (enzyme) | – |
| – | – | β2-glycoprotein I (nicked) (from UniProt P02749) | 370 nM |
